The record followed here is patent US5773001 (American Cyanamid Company, dated 1998).

Read-outs that look alike come from different tables or passages of the source. Bounds are passed on as bounds.

Experiment [1] addresses CD33 antigen (human) (UniProt P20138). Kind of experiment: competition with 125I-labelled native antibody on HEL 92.1.7 cells; IC50 (reference) / IC50 (sample).
For experiment [2] the target is unchanged.
The target is the same in experiment [3]. The source holds these as a separate data set.
For experiment [4] the target is unchanged. The source holds these as a separate data set.
The target of experiment [5] is T1, glycoprotein antigen present on colon cancer cells, recognized by A33 (Homo sapiens (Human)) (UniProt Q99795).
T1 sequence: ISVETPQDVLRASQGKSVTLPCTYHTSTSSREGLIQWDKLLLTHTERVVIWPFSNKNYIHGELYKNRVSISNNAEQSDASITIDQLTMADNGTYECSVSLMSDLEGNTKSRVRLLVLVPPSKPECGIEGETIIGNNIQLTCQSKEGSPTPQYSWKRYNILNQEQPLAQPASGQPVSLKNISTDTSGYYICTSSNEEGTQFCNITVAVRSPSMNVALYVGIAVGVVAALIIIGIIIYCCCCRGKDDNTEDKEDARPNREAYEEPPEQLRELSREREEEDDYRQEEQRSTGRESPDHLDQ
In words: competition on Colo205 cells, FACScan; competitor FITC-labelled murine A33.

For experiment [6], the target named is CD33 antigen (human) (UniProt P20138). The source holds these as a separate data set.
For experiment [7] the target is unchanged. This is another data set of the same source.
For experiment [8] the target is unchanged. The source holds these as a separate data set.
Experiment [9] shares this target. The source holds these as a separate data set.
For experiment [10] the target is unchanged. This is another data set of the same source.
Experiment [11] shares this target. Kind of experiment: competition with 125I-labelled native antibody on HEL 92.1.7 cells; IC50 (reference) / IC50 (sample). The source holds these as a separate data set.
For experiment [12] the target is unchanged. This is another data set of the same source.
Experiment [13] shares this target. The source holds these as a separate data set.
Experiment [14] shares this target. This is another data set of the same source.
The target is the same in experiment [15]. The source holds these as a separate data set.
The target is the same in experiment [16]. This is another data set of the same source.
The target is the same in experiment [17]. This is another data set of the same source.
For experiment [18] the target is unchanged. The source holds these as a separate data set.
Experiment [19] has the same target. The source holds these as a separate data set.
Experiment [20] shares this target. The source holds these as a separate data set.
Experiment [21] has the same target. This is another data set of the same source.
Experiment [22] shares this target. This is another data set of the same source.
Experiment [23] shares this target. The source holds these as a separate data set.
In experiment [24] the target is T1, glycoprotein antigen present on colon cancer cells, recognized by A33 (Homo sapiens (Human)).
Experiment [25] has the same target. Kind of experiment: competition with 125I-labelled native antibody on COLO 205 cells; IC50 (reference) / IC50 (sample).

“Conjugate of 5-acetyl-2-(3-carboxypropoxy)benzoic acid (26), methyl ester condensed with Calicheamicin N-acetyl gamma dimethyl hydrazide and h-P67.6 (antibody)” yielded a Rel. Affinity with CD33 antigen (human) [1] of 0.79. The molecule also showed an In vitro IC50 (3H-thymidine incorporation) with CD33 antigen (human) [2] of under 0.005 ng/mL.
In turn, “Conjugate of 5-(4-acetylphenyl)amino!-5-oxopentanoic acid (24) condensed with Calicheamicin N-acetyl gamma dimethyl hydrazide and m-P67.6 (antibody)” registered a Rel. Affinity with CD33 antigen (human) [1] of 0.73. For the same molecule, the In vitro IC50 (3H-thymidine incorporation) with CD33 antigen (human) [3] is under 0.005 ng/mL.
In the experiment with CD33 antigen (human) [1], “Conjugate of 11-(4-acetylphenoxy)undecanoic acid (23) condensed with Calicheamicin N-acetyl gamma dimethyl hydrazide and m-P67.6 (antibody)” had a Rel. Affinity of 1.16. Moreover, the In vitro IC50 (3H-thymidine incorporation) with CD33 antigen (human) [4] was found to be 0.47 ng/mL.
For the molecule humanized A33 (antibody), in [5], the relative potency against the murine antibody stood at 75%.
In the case of “Conjugate of 4-(2-acetyl-1-naphthalenyl)oxy! butanoic acid (20) condensed with Calicheamicin N-acetyl gamma dimethyl hydrazide and m-P67.6 (antibody)”, the Rel. Affinity with CD33 antigen (human) [1] came to 0.66. Also, the In vitro IC50 (3H-thymidine incorporation) in the experiment with CD33 antigen (human) [6] stood at 0.0067 ng/mL.
“Conjugate of 4-4-(3-oxobutyl)phenoxy!butanoic acid (16) condensed with Calicheamicin N-acetyl gamma dimethyl hydrazide and m-P67.6 (antibody)” gave an In vitro IC50 (3H-thymidine incorporation) with CD33 antigen (human) [7] of 9 ng/mL.
As to “Conjugate of 4-4-(3-oxopropyl)phenoxy!butanoic acid (18) condensed with Calicheamicin N-acetyl gamma dimethyl hydrazide and m-P67.6 (antibody)”, the Rel. Affinity with CD33 antigen (human) [1] amounted to 1.21. This molecule also yielded an In vitro IC50 (3H-thymidine incorporation) in the experiment with CD33 antigen (human) [8] of 0.62 ng/mL.
With “Conjugate of 4-(2-acetyl-5-methoxyphenoxy!butanoic acid (17) condensed with Calicheamicin N-acetyl gamma dimethyl hydrazide and m-P67.6 (antibody)”, the Rel. Affinity with CD33 antigen (human) [1] stood at 1.2. The In vitro IC50 (3H-thymidine incorporation) with CD33 antigen (human) [9] turned out to be 0.0098 ng/mL.

B1: Conjugate of 4-(2-acetyl-5-methoxyphenoxy!butanoic acid (17) condensed with Calicheamicin N-acetyl gamma dimethyl hydrazide and h-P67.6 (antibody, V domains shown)
VH: EVQLVQSGAEVKKPGSSVKVSCKASGYTITDSNIHWVRQAPGQSLEWIGYIYPYNGGTDYNQKFKNRATLTVDNPTNTAYMELSSLRSEDTDFYYCVNGNPWLAYWGQGTLVTVSS
VL: DIQLTQSPSTLSASVGDRVTITCRASESLDNYGIRFLTWFQQKPGKAPKLLMYAASNQGSGVPSRFSGSGSGTEFTLTISSLQPDDFATYYCQQTKEVPWSFGQGTKVEVKR
modifications: drug-linker amide on lysine side chains, sites not stated; drug-linker amide on lysine side chains, sites not stated
Take B1: the In vitro IC50 (3H-thymidine incorporation) in the experiment with CD33 antigen (human) [10] was found to be 0.088 ng/mL. In the experiment with CD33 antigen (human) [11], this molecule came in with a Rel. Affinity of 0.98.

B2: Conjugate of 4-(4-acetylphenyl)-1-piperazinepentanoic acid (22) condensed with Calicheamicin N-acetyl gamma dimethyl hydrazide and h-P67.6 (antibody, V domains shown)
VH: B1 VH
VL: B1 VL
modifications: drug-linker amide on lysine side chains, sites not stated; drug-linker amide on lysine side chains, sites not stated
As to B2, the In vitro IC50 (3H-thymidine incorporation) with CD33 antigen (human) [12] was determined as 12 ng/mL. The same molecule came in with a Rel. Affinity with CD33 antigen (human) [11] of 0.98.

B3: Conjugate of 4-(4-formyl-2-nitrophenoxy)butanoic acid (27) condensed with Calicheamicin N-acetyl gamma dimethyl hydrazide and h-P67.6 (antibody, V domains shown)
VH: B1 VH
VL: B1 VL
modifications: drug-linker amide on lysine side chains, sites not stated; drug-linker amide on lysine side chains, sites not stated
In the experiment with CD33 antigen (human) [11], B3 displayed a Rel. Affinity of 1.3. The same molecule showed an In vitro IC50 (3H-thymidine incorporation) with CD33 antigen (human) [13] of 0.023 ng/mL.

B4: Conjugate of 4-(2-Acetylphenoxy)butanoic acid (31) condensed with Calicheamicin N-acetyl gamma dimethyl hydrazide and h-P67.6 (antibody, V domains shown)
VH: B1 VH
VL: B1 VL
modifications: drug-linker amide on lysine side chains, sites not stated; drug-linker amide on lysine side chains, sites not stated
With B4, the In vitro IC50 (3H-thymidine incorporation) in the experiment with CD33 antigen (human) [14] was under 0.005 ng/mL. Besides, the Rel. Affinity with CD33 antigen (human) [11] turned out to be 0.95.

B5: Conjugate of 11-(4-acetylphenoxy)undecanoic acid (23) condensed with Calicheamicin N-acetyl gamma dimethyl hydrazide and h-P67.6 (antibody, V domains shown)
VH: B1 VH
VL: B1 VL
modifications: drug-linker amide on lysine side chains, sites not stated; drug-linker amide on lysine side chains, sites not stated
B5 gave an In vitro IC50 (3H-thymidine incorporation) with CD33 antigen (human) [15] of 0.43 ng/mL. Also, the Rel. Affinity with CD33 antigen (human) [11] came to 0.8.

B6: Conjugate of 4-2-(4-acetylphenyl)amino!methyl!-6-methoxyphenoxy!butanoic acid (28) condensed with Calicheamicin N-acetyl gamma dimethyl hydrazide and h-P67.6 (antibody, V domains shown)
VH: B1 VH
VL: B1 VL
modifications: drug-linker amide on lysine side chains, sites not stated; drug-linker amide on lysine side chains, sites not stated
B6 displayed a Rel. Affinity in the experiment with CD33 antigen (human) [11] of 0.85. This molecule also returned an In vitro IC50 (3H-thymidine incorporation) with CD33 antigen (human) [16] of under 0.005 ng/mL.

B7: Conjugate of 4-4-(3-oxopropyl)phenoxy!butanoic acid (18) condensed with Calicheamicin N-acetyl gamma dimethyl hydrazide and h-P67.6 (antibody, V domains shown)
VH: B1 VH
VL: B1 VL
modifications: drug-linker amide on lysine side chains, sites not stated; drug-linker amide on lysine side chains, sites not stated
B7 had a Rel. Affinity with CD33 antigen (human) [11] of 0.8. In addition, in the experiment with CD33 antigen (human) [17], the In vitro IC50 (3H-thymidine incorporation) was determined as 1.1 ng/mL.

B8: Conjugate of 4-4-(4-fluorobenzoyl)phenoxy!butanoic acid (21) condensed with Calicheamicin N-acetyl gamma dimethyl hydrazide and h-P67.6 (antibody, V domains shown)
VH: B1 VH
VL: B1 VL
modifications: drug-linker amide on lysine side chains, sites not stated; drug-linker amide on lysine side chains, sites not stated
B8 had an In vitro IC50 (3H-thymidine incorporation) with CD33 antigen (human) [18] of 99 ng/mL. This molecule also had a Rel. Affinity in the experiment with CD33 antigen (human) [11] of 0.67.

B9: Conjugate of 4-4-(4-fluorobenzoyl)phenoxy!butanoic acid (21) condensed with Calicheamicin N-acetyl gamma, dimethyl hydrazide and h-P67.6 (antibody, V domains shown)
VH: B1 VH
VL: B1 VL
modifications: drug-linker amide on lysine side chains, sites not stated; drug-linker amide on lysine side chains, sites not stated
Turning to B9, the In vitro IC50 (3H-thymidine incorporation) in the experiment with CD33 antigen (human) [19] is 63 ng/mL. The molecule further came in with a Rel. Affinity in the experiment with CD33 antigen (human) [11] of 0.76.

B10: Conjugate of 2-acetyl-10H-phenothiazine-10-hexanoic acid (32) condensed with Calicheamicin N-acetyl gamma dimethyl hydrazide and h-P67.6 (antibody, V domains shown)
VH: B1 VH
VL: B1 VL
modifications: drug-linker amide on lysine side chains, sites not stated; drug-linker amide on lysine side chains, sites not stated
B10 displayed an In vitro IC50 (3H-thymidine incorporation) with CD33 antigen (human) [20] of 0.021 ng/mL. Besides, in the experiment with CD33 antigen (human) [11], the Rel. Affinity amounted to 1.25.

B11: Conjugate of 4-acetylphenylacetic acid (33) condensed with Calicheamicin N-acetyl gamma dimethyl hydrazide and h-P67.6 (antibody, V domains shown)
VH: B1 VH
VL: B1 VL
modifications: drug-linker amide on lysine side chains, sites not stated; drug-linker amide on lysine side chains, sites not stated
Consider B11, for which, in the experiment with CD33 antigen (human) [11], the Rel. Affinity turned out to be 0.91. Moreover, the In vitro IC50 (3H-thymidine incorporation) with CD33 antigen (human) [21] was under 0.005 ng/mL.

B12: Conjugate of 4-(2-chloro-4-formylphenoxy)butanoic acid (25) condensed with Calicheamicin N-acetyl gamma dimethyl hydrazide and h-P67.6 (antibody, V domains shown)
VH: B1 VH
VL: B1 VL
modifications: drug-linker amide on lysine side chains, sites not stated; drug-linker amide on lysine side chains, sites not stated
For the molecule B12, the In vitro IC50 (3H-thymidine incorporation) with CD33 antigen (human) [22] stood at 0.0071 ng/mL. In the experiment with CD33 antigen (human) [11], the Rel. Affinity came to 0.31.

B13: Conjugate of 4-(4-acetyl-3-fluorophenoxy)butanoic acid (30) condensed with Calicheamicin N-acetyl gamma dimethyl hydrazide and h-P67.6 (antibody, V domains shown)
VH: B1 VH
VL: B1 VL
modifications: drug-linker amide on lysine side chains, sites not stated; drug-linker amide on lysine side chains, sites not stated
In the case of B13, the Rel. Affinity with CD33 antigen (human) [11] turned out to be 1.01. For the same molecule, the In vitro IC50 (3H-thymidine incorporation) in the experiment with CD33 antigen (human) [23] turned out to be 0.005 ng/mL.

B14: Conjugate of 4-(4-acetylphenoxy)butanoic acid (7) condensed with calicheamicin N-acetyl gamma dimethyl hydrazide and m-A33 (antibody, V domains shown)
VH: EVKLVESGGGLVKPGGSLKLSCAASGFAFSTYDMSWVRQTPEKRLEWVATISSGGSYTYYLDSVKGRFTISRDSPRNTLYLQMSSLRSEDTALYYCAPTTVVPFAYWGQGTLVTVSA
VL: DIVMTQSQKFMSTSVGDRVSITCKASQNVRTVVAWYQQKPGQSPKTLIYLASNRHTGVPDRFTGSGSGTDFTLTISNVQSEDLADYFCLQHWSYPLTFGSGTKLEVKR
modifications: drug-linker amide on lysine side chains, sites not stated; drug-linker amide on lysine side chains, sites not stated
The molecule B14 registered an In vitro IC50 (3H-thymidine incorporation) in experiment [24] of 3.32 ng/mL. Further, the Rel. Affinity in [25] was determined as 0.68.
